Data as given in patent US20110318347A1.

Assays:
human CXCR4 (human) [1] = experiment: competition vs [125I]-CXCL12 (40 pM), membranes of HEK293T cells expressing CXCR4
human CXCR4 (human) [2] = experiment: competition vs [125I]-238D4 (3 nM), membranes of HEK293T cells expressing CXCR4
human CXCR4 (human) [3] = experiment: competition with [125I]-238D2 on HEK293T-CXCR4 membranes
human CXCR4 (human) [4] = target: human CXCR4 (human)
human CXCR4 (human) [5] = experiment: cell-based or functional assay
human CXCR4 (human) [6] = experiment: competition with [125I]-238D4 on HEK293T-CXCR4 membranes
human CXCR4 (human) [7] = experiment: periplasmic fraction (1:10), displacement of [125I]-CXCL12, HEK293T-CXCR4 membranes; - = 0-29%, + = 30-69%, ++ = 70-100%
human CXCR4 (human) [8] = experiment: competition vs [125I]-238D2 (3 nM), membranes of HEK293T cells expressing CXCR4
human CXCR4 (human) [9] = experiment: competition with [125I]-CXCL12 on HEK293T-CXCR4 membranes

Nanobody 238D2 (VHH), sequence (VHH): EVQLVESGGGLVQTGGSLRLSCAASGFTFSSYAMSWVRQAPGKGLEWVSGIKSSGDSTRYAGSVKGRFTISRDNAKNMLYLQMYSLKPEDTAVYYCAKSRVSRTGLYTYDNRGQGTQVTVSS

## Nanobody 238D2 (VHH)
Human CXCR4 (human) [1]
  Displacem. (%): 93%
  pKi: 8.01
Human CXCR4 (human) [2]
  pKi: 8.23
Human CXCR4 (human) [3]
  IC50 (read off the curve): 6 nM
Human CXCR4 (human) [4]
  IC50 (read off the curve), migration of Jurkat cells towards 0.3 nM CXCL12: 8 nM
Human CXCR4 (human) [5]
  Anti-HIV-1 activity (in nM), MT-4/HE: 26.7 nM
  Anti-HIV-1 activity (in nM), MT-4/NL4.3: 30.7 nM
  Anti-HIV-1 activity (in nM), PBMC/HE: 44.7 nM
  Anti-HIV-1 activity (in nM), PBMC/NL4.3: 30.9 nM
  Anti-HIV-1 activity (in nM), U87.CD4.CXCR4/NL4.3: 44.7 nM
  CRE activation, HEK293T-CXCR4-CREbgal/0.01-100 nM CXCL12, Imax (%): 104%
  Chemotaxis, Jurkat/0.3 nM CXCL12, Imax (%): 106%
  IC50, HIV-1 NL4.3, MT-4 cells, exp. 1: 0.701 µg/mL
  IC50, HIV-1 NL4.3, PBMC donor 1: 0.468 µg/mL
  IC50, HIV-1 NL4.3, PBMC donor 2: 0.307 µg/mL
  IC50, HIV-1 UG270, PBMC donor 1: 0.492 µg/mL
  IC50, HIV-1 UG270, PBMC donor 2: 0.447 µg/mL
  IC90, HIV-1 NL4.3, MT-4 cells, exp. 1: 0.849 µg/mL
  IC90, HIV-1 NL4.3, PBMC donor 1: > 1 µg/mL
  IC90, HIV-1 NL4.3, PBMC donor 2: > 1 µg/mL
  IC90, HIV-1 UG270, PBMC donor 1: > 1 µg/mL
  IC90, HIV-1 UG270, PBMC donor 2: 0.851 µg/mL
  IP accumulation, HEK293T-CXCR4-Gαqi5/30 nM CXCL12, Imax (%): 86%
  nM IC50, HIV-1 NL4.3, PBMC donor 1: 31.2 nM
  nM IC50, HIV-1 NL4.3, PBMC donor 2: 20.5 nM
  nM IC50, HIV-1 UG270, PBMC donor 1: 32.8 nM
  nM IC50, HIV-1 UG270, PBMC donor 2: 29.8 nM
Human CXCR4 (human) [6]
  IC50 (read off the curve): 4 nM
Human CXCR4 (human) [7]
  percent inhibition of specific [125I]-CXCL12 binding: 70 to 100%
Human CXCR4 (human) [8]
  Displacem. (%): 97%
  pKi: 8.41
Human CXCR4 (human) [9]
  IC50 (read off the curve): 20 nM

## monoclonal antibody 12G5
Human CXCR4 (human) [1]
  Displacem. (%): 54%
  pKi: 9.19
Human CXCR4 (human) [2]
  Displacem. (%): 90%
  pKi: 9.31
Human CXCR4 (human) [8]
  Displacem. (%): 89%
  pKi: 9.65
